The values below come from patent US20040110684A1 (UNIVERSITE CATHOLIQUE DE LOUVAIN, published 2004).

B1: caveolin, endogenous, mouse cardiac microvascular endothelial cells (CMECs) (other, UniProt P49817 2-178, looked up)
chain: SGGKYVDSEGHLYTVPIREQGNIYKPNNKAMADEVTEKQVYDAHTKEIDLVNRDPKHLNDDVVKIDFEDVIAEPEGTHSFDGIWKASFTTFTVTKYWFYRLLSTIFGIPMALIWGIYFAILSFLHIWAVVPCIKSFLIEIQCISRVYSIYVHTFCDPLFEAIGKIFSNIRISTQKEI
notes: also called caveolin-1
B2: caveolin, endogenous, human umbilical vein endothelial cells (HUVECs) (other, UniProt Q03135 2-178, looked up)
chain: B1 chain with V35L, T36S, T104A, I105L, F154V, I162V, I169V, S172N, T173L
notes: also called caveolin-1
B3: endothelial nitric oxide synthase (eNOS), endogenous, human umbilical vein endothelial cells (HUVECs) (enzyme)
chain: GNLKSVAQEPGPPCGLGLGLGLGLCGKQGPATPAPEPSRAPASLLPPAPEHSPPSSPLTQPPEGPKFPRVKNWEVGSITYDTLSAQAQQDGPCTPRRCLGSLVFPRKLQGRPSPGPPAPEQLLSQARDFINQYYSSIKRSGSQAHEQRLQEVEAEVAATGTYQLRESELVFGAKQAWRNAPRCVGRIQWGKLQVFDARDCRSAQEMFTYICNHIKYATNRGNLRSAITVFPQRCPGRGDFRIWNSQLVRYAGYRQQDGSVRGDPANVEITELCIQHGWTPGNGRFDVLPLLLQAPDDPPELFLLPPELVLEVPLEHPTLEWFAALGLRWYALPAVSNMLLEIGGLEFPAAPFSGWYMSTEIGTRNLCDPHRYNILEDVAVCMDLDTRTTSSLWKDKAAVEINVAVLHSYQLAKVTIVDHHAATASFMKHLENEQKARGGCPADWAWIVPPISGSLTPVFHQEMVNYFLSPAFRYQPDPWKGSAAKGTGITRKKTFKEVANAVKISASLMGTVMAKRVKATILYGSETGRAQSYAQQLGRLFRKAFDPRVLCMDEYDVVSLEHETLVLVVTSTFGNGDPPENGESFAAALMEMSGPYNSSPRPEQHKSYKIRFNSISCSDPLVSSWRRKRKESSNTDSAGALGTLRFCVFGLGSRAYPHFCAFARAVDTRLEELGGERLLQLGQGDELCGQEEAFRGWAQAAFQAACETFCVGEDAKAAARDIFSPKRSWKRQRYRLSAQAEGLQLLPGLIHVHRRKMFQATIRSVENLQSSKSTRATILVRLDTGGQEGLQYQPGDHIGVCPPNRPGLVEALLSRVEDPPAPTEPVAVEQLEKGSPGGPPPGWVRDPRLPPCTLRQALTFFLDITSPPSPQLLRLLSTLAEEPREQQELEALSQDPRRYEEWKWFRCPTLLEVLEQFPSVALPAPLLLTQLPLLQPRYYSVSSAPSTHPGEIHLTVAVLAYRTQDGLGPLHYGVCSTWLSQLKPGDPVPCFIRGAPSFRLPPDPSLPCILVGPGTGIAPFRGFWQERLHDIESKGLQPTPMTLVFGCRCSQLDHLYRDEVQNAQQRGVFGRVLTAFSREPDNPKTYVQDILRTELAAEVHRVLCLERGHMFVCGDVTMATNVLQTVQRILATEGDMELDEAGDVIGVLRDQQRYHEDIFGLTLRTQEVTSRIRTQSFSLQERQLRGAVPWAFDPPGSDTNSP

Positions count from the first letter of the chain named.

Experiment [1] concerns the target T1, endothelial nitric oxide synthase (eNOS), endogenous, mouse cardiac microvascular endothelial cells (CMECs) (mouse, UniProt P70313 2-1202).
T1 construct: Endogenous protein in a cell lysate, detected by co-immunoprecipitation and immunoblot; also called endothelial NO synthase
T1 sequence (looked up): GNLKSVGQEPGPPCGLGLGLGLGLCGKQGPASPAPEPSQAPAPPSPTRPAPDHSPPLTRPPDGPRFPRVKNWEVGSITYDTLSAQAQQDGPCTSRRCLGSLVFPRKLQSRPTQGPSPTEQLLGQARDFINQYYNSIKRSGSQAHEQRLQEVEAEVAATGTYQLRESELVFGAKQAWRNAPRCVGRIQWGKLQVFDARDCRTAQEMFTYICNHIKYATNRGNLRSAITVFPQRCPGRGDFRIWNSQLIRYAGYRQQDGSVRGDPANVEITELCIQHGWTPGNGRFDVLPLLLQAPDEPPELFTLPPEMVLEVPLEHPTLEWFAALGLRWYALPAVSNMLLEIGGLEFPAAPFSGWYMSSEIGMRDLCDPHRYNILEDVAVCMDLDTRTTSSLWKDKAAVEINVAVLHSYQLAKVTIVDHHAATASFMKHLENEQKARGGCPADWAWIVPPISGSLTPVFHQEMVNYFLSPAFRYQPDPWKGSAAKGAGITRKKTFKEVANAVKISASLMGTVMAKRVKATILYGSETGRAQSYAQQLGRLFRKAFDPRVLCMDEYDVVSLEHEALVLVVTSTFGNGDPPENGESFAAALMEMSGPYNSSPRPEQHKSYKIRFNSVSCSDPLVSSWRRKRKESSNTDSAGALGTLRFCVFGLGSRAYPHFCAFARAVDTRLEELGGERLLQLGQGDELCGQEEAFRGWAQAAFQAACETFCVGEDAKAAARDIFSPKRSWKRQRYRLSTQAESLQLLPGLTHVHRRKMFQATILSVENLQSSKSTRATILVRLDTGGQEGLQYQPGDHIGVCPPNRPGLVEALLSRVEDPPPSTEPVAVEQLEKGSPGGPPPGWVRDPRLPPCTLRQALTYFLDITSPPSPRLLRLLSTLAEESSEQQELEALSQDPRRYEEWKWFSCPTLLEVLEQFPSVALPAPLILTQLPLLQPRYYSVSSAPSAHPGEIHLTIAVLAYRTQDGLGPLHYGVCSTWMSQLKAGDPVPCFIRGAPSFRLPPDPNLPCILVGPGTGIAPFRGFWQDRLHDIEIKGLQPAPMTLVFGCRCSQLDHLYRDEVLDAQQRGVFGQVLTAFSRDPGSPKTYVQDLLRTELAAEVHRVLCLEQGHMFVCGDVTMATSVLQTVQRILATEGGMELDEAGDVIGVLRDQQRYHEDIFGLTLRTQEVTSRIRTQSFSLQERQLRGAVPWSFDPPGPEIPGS
The experiment can be described thus: co-IP with eNOS or caveolin antibodies, immunoblot, CMEC lysates. In general terms: A western blot detects proteins with antibodies after separation by electrophoresis.

In experiment [2] the target is B3. The experiment can be described thus: caveolin IP, eNOS immunoblot, HUVEC lysates.
Description: Following exposure to VEGF (50 ng/ml) for increasing periods of time (0, 0.5, 2, 5, and 30 min), EC were collected, lysed, and cell extracts used for immunoprecipitation as follows.
Experiment [3] has as its target calmodulin (CaM), endogenous, human umbilical vein endothelial cells (HUVECs) (human, UniProt P0DP23 2-149). In words: eNOS IP, CaM immunoblot, VEGF-treated HUVEC lysates.

Consider B1, for which the binding result in experiment [1] was “binds”.
Take B2: the binding result in experiment [2] was “binds”.
On to B3, for which the binding result in experiment [3] is reported as “binds”.
